Drawing on the RNAGym collection of RNA variant scans (doi:10.7554/elife.90254), this text covers self-cleavage for 167 variants.

B1: LINE1-full (parent)
chain: UACGUAGGUGGUUUUCCCCUGAUAGUGCUAAGGGGGCCUGGAAGUUUGGACUGGGCAGAGCUCAACACAGCGUGGCAAAGUGGCUGUGGCUAGACUGCCUCUCUGGAUUCCUCGUCACUCAGCAGGGCAUCUCUGAGAGAAAUGCC

The variants in this data set derive from B1. In words: self-cleavage, relative activity (ratio to wild type); higher = more cleavage; in vitro, sequencing; the parent is a self-cleaving ribozyme.
As for C128U A141U, the self-cleavage came to 1.62.

As to A129C U130C, the self-cleavage was determined as 1.02.

For C120U A140G, the self-cleavage came out at 1.1.

As for U132A A141U, the self-cleavage worked out at 0.14.

Turning to C120U A121G, the self-cleavage was 0.

Regarding A136U A142G, the self-cleavage came to 1.52.

With G135U A140U, the self-cleavage came to 1.13.

In the case of A124G A136C, the self-cleavage was determined as 1.19.

For the variant A124G A136G, the self-cleavage was 1.14.

For the variant A136C, the self-cleavage came out at 1.34.

A136G: the self-cleavage worked out at 1.27.

Turning to A136U, the self-cleavage is 1.23.

On to C133A, for which the self-cleavage worked out at 1.37.

In the case of C133U, the self-cleavage was 1.16.

Turning to C131U A142G, the self-cleavage worked out at 1.61.

In the case of G122A G137U, the self-cleavage was 1.23.

For the variant U132C U134C, the self-cleavage was found to be 1.35.

As for U132C U134A, the self-cleavage was determined as 0.73.

For A129G C145U, the self-cleavage is 0.99.

On to A129G C145G, for which the self-cleavage was 1.65.

For A121G G125U, the self-cleavage is 1.8.

For the variant C128U U132C, the self-cleavage was found to be 1.37.

As to G125A A129U, the self-cleavage worked out at 0.46.

Consider G125A A129G, for which the self-cleavage was 1.38.

U130C U134A: the self-cleavage is 1.

For the variant A129G A138U, the self-cleavage came out at 2.12.

For C123U U132C, the self-cleavage stood at 1.53.

As for G135A A136G, the self-cleavage was found to be 1.61.

Regarding C120A G122U, the self-cleavage came out at 2.31.

Consider U130C A136G, for which the self-cleavage was 1.66.

Regarding G127A A136G, the self-cleavage worked out at 1.5.

G127A A136U: the self-cleavage was 1.65.

For the variant U130C G139A, the self-cleavage was determined as 1.5.

Consider A121G G135A, for which the self-cleavage was 2.36.

With A124G A142G, the self-cleavage is 0.72.

Take A124G U130C: the self-cleavage was 1.58.

Regarding U132C G144A, the self-cleavage came to 1.86.

Consider A141G A142G, for which the self-cleavage came out at 1.45.

For the variant A141G A142U, the self-cleavage was found to be 1.36.

On to A129G A140C, for which the self-cleavage is 0.74.

On to A129G A140U, for which the self-cleavage stood at 1.8.

In the case of G127A A138U, the self-cleavage was 1.5.

As for A129U U132A, the self-cleavage turned out to be 0.04.

With A129U U132C, the self-cleavage stood at 1.3.

On to A124U A141U, for which the self-cleavage is 1.27.

G139A A141G: the self-cleavage worked out at 1.58.

On to A124G G135U, for which the self-cleavage is 1.49.

With U130G U143C, the self-cleavage was 1.5.

Consider U134C A138U, for which the self-cleavage was 1.65.

As to A138G U143A, the self-cleavage stood at 1.45.

As for A124C A140G, the self-cleavage is 1.88.

As to G125A U143C, the self-cleavage amounted to 0.64.

Take G139C: the self-cleavage is 1.53.

As to G139U, the self-cleavage is 1.31.

Consider G139A, for which the self-cleavage came out at 0.89.

Take G137U U143C: the self-cleavage was found to be 1.04.

Consider C133U A136G, for which the self-cleavage was determined as 0.49.

For A129G C131U, the self-cleavage was 0.92.

Turning to A124G G139A, the self-cleavage came out at 1.84.

As for U132A U134C, the self-cleavage is 1.61.

In the case of U130C A140U, the self-cleavage worked out at 0.32.

For the variant U130C A140G, the self-cleavage turned out to be 1.49.

Consider U134A A141U, for which the self-cleavage was determined as 1.12.

In the case of A129G, the self-cleavage came to 1.52.

On to A129U, for which the self-cleavage came out at 1.4.

For A129C, the self-cleavage came to 1.67.

With G125U U143C, the self-cleavage came out at 1.08.

As to U132G A138G, the self-cleavage stood at 1.35.

Regarding A136G A140G, the self-cleavage was 1.51.

As for A136G A140U, the self-cleavage was 1.29.

In the case of A140C A141G, the self-cleavage was determined as 0.41.

With U130A U132C, the self-cleavage turned out to be 1.41.

As for U134C G144A, the self-cleavage is 1.18.

On to A121G A136U, for which the self-cleavage is 1.97.

As to C120U A129C, the self-cleavage was 0.82.

With U130C A138G, the self-cleavage was determined as 1.75.

In the case of U130C A138U, the self-cleavage stood at 1.36.

Regarding C120U, the self-cleavage was 1.37.

Take A129G U134G: the self-cleavage was 1.65.

Take U132C G135A: the self-cleavage was 1.19.

C120U A136G: the self-cleavage is 1.39.

For G125U U134C, the self-cleavage amounted to 1.2.

A124C A141G: the self-cleavage turned out to be 1.71.

Regarding G135U U143C, the self-cleavage is 1.63.

In the case of G135A A138G, the self-cleavage was 1.82.

For the variant A129G A136U, the self-cleavage worked out at 2.26.

A121U A124U: the self-cleavage amounted to 1.54.

Turning to A121U A124G, the self-cleavage came to 1.31.

As to G122A A124G, the self-cleavage amounted to 0.62.

Consider G127A U132C, for which the self-cleavage was 0.78.

Consider U130A G137A, for which the self-cleavage came out at 1.84.

As for U132A A140G, the self-cleavage is 1.41.

With G127U A138G, the self-cleavage worked out at 1.29.

Consider U132A G144A, for which the self-cleavage was found to be 1.82.

As for C123A A129U, the self-cleavage is 1.31.

U132A G137A: the self-cleavage was 1.7.

For the variant G125A U130C, the self-cleavage worked out at 1.69.

On to G125A U130A, for which the self-cleavage stood at 1.61.

Take A121G A141U: the self-cleavage is 1.77.

On to C128U A136U, for which the self-cleavage was found to be 1.67.

In the case of G122A A136G, the self-cleavage was 1.54.

Turning to A142C, the self-cleavage was determined as 0.53.

With A142U, the self-cleavage amounted to 1.22.

Regarding A142G, the self-cleavage was 1.21.

With G127A A141G, the self-cleavage came out at 0.99.

On to A124G A138U, for which the self-cleavage was 1.23.

Take A124U A138G: the self-cleavage turned out to be 1.79.

Consider A124U A138U, for which the self-cleavage worked out at 1.37.

Turning to A121U A129G, the self-cleavage came to 1.77.

As to U130C C146U, the self-cleavage came to 1.52.

A124U U134A: the self-cleavage is 1.31.

Turning to A138G C146U, the self-cleavage was found to be 1.32.

Regarding A121U U130C, the self-cleavage was found to be 1.7.

In the case of A136U A138U, the self-cleavage was found to be 0.99.

For G127C U132C, the self-cleavage was 1.99.

With A141U U143A, the self-cleavage is 0.6.

As for C131U A138G, the self-cleavage worked out at 1.36.

Consider C120A A129G, for which the self-cleavage came to 1.29.

As for A121G A124U, the self-cleavage was 1.62.

For A121G A124C, the self-cleavage worked out at 0.32.

With G139U A140G, the self-cleavage was 1.23.

Consider U143C G144A, for which the self-cleavage amounted to 2.03.

Consider A121U U132C, for which the self-cleavage stood at 1.36.

As for A129U U130C, the self-cleavage amounted to 1.49.

Turning to C123A A138G, the self-cleavage worked out at 1.82.

With C131U A136G, the self-cleavage came out at 1.39.

In the case of A121G U143C, the self-cleavage came to 1.69.

In the case of U143A G144A, the self-cleavage stood at 1.4.

Turning to A124U U143A, the self-cleavage is 1.75.

Turning to A124U U143C, the self-cleavage amounted to 1.26.

On to C123U G135C, for which the self-cleavage stood at 1.97.

Consider A121U A140C, for which the self-cleavage was 1.09.

On to A121U A140G, for which the self-cleavage stood at 1.18.

Regarding A129U U143C, the self-cleavage turned out to be 1.64.

For the variant A129U U143A, the self-cleavage stood at 1.59.

For A124C A138G, the self-cleavage turned out to be 1.39.

As to A121U G144A, the self-cleavage worked out at 1.86.

Take A124G U143A: the self-cleavage worked out at 0.98.

In the case of A124G U143C, the self-cleavage came to 0.62.

With C131A G135A, the self-cleavage turned out to be 1.55.

Take U130C G135U: the self-cleavage is 0.97.

Turning to U134A G135U, the self-cleavage was 1.21.

In the case of A140U, the self-cleavage came to 1.26.

For the variant A140G, the self-cleavage worked out at 1.07.

For A140C, the self-cleavage was 0.65.

As for A138U U143C, the self-cleavage came out at 1.23.

Take A138U U143G: the self-cleavage is 1.5.

Turning to G122C, the self-cleavage amounted to 1.5.

As to G122A, the self-cleavage was determined as 1.13.

As for G122U, the self-cleavage turned out to be 1.3.

For G125U G144U, the self-cleavage was found to be 1.72.

Take A121G A140U: the self-cleavage was 1.45.

Regarding A121G A140C, the self-cleavage was 1.93.

As to A124U A140U, the self-cleavage was determined as 1.09.

A121U C146U: the self-cleavage is 1.73.

With G127A, the self-cleavage was 1.16.

G127U: the self-cleavage was 1.24.

With G127C, the self-cleavage stood at 1.45.

Regarding A124U A142G, the self-cleavage was 1.51.

C133A A136U: the self-cleavage is 1.38.

For the variant U134G U143G, the self-cleavage was found to be 0.88.

Turning to G126U A140G, the self-cleavage stood at 0.66.

As to A121U G127A, the self-cleavage is 0.76.

Take A138G A142G: the self-cleavage came out at 1.39.

For the variant U134A C146U, the self-cleavage was found to be 0.6.

Regarding C133U A140G, the self-cleavage amounted to 1.05.

On to A124G A140U, for which the self-cleavage worked out at 0.94.
